From article PMC9210550
Like-named read-outs stand apart in the source and are kept apart here.

What was measured:
[1] = target: T1, ZCCHC8 core (NEXT subunit);RBM7 core (NEXT subunit);MTR4 (human;human;human, UniProt Q6NZY4;Q9Y580;P42285 1-415+508-707;6-86;1-1042, internal_change||); assay: EMSA
[2] = target: ZCCHC8 core delta HD;RBM7 core (NEXT subunit);MTR4 (human;human;human, UniProt Q6NZY4;Q9Y580;P42285 176-415+508-707;6-86;1-1042, internal_change||); assay: EMSA
[3] = target: T2, ZCCHC8 core (NEXT subunit);RBM7 core FAFA;MTR4 (human;human;human, UniProt Q6NZY4;Q9Y580;P42285 1-415+508-707;6-86;1-1042, internal_change|F13A;F52A|); assay: EMSA
[4] = target: T2, ZCCHC8 core (NEXT subunit);RBM7 core …; assay: EMSA; remark: listed apart in the source
[5] = target: ZCCHC8 core delta ZK;RBM7 core (NEXT subunit);MTR4 (human;human;human, UniProt Q6NZY4;Q9Y580;P42285 1-226+245-415+508-707;6-86;1-1042, internal_change||); assay: EMSA
[6] = target: T1, ZCCHC8 core (NEXT subunit);RBM7 core …; assay: EMSA; remark: listed apart in the source
[7] = target: T1, ZCCHC8 core (NEXT subunit);RBM7 core …; assay: cryo-EM
[8] = target: T1, ZCCHC8 core (NEXT subunit);RBM7 core …; assay: cryo-EM; remark: listed apart in the source

B1: 3' A5U5A10-tailed RNA duplex (dsRNA)
RNA 1: AGUGCGCUGUAUCUUCAAGGCCACU
RNA 2: AGUGGCCUUGAAGAUACAGCGCACUAAAAAUUUUUAAAAAAAAAA
[1]
  Kd: 42 nM
[2]
  binding signal: ~2 fold weaker than NEXT
[3]
  binding signal: ~3 fold weaker than NEXT

B2: 3' A20-tailed RNA duplex (dsRNA)
RNA 1: AGUGCGCUGUAUCUUCAAGGCCACU
RNA 2: AGUGGCCUUGAAGAUACAGCGCACUAAAAAAAAAAAAAAAAAAAA
[4]
  binding signal: ~2 fold weaker than NEXT on A20 tail
[5]
  binding signal: ~4 fold tighter than NEXT on A20 tail
[6]
  binding signal: ~10 fold weaker than NEXT on A5U5A10 tail

## ACAUGAGGAUCACCCAUGUAAUCUCUUUCAAAAAAUACAAAAAAAA (structured_RNA, 2'-pyrene modified U at position 36) [cryo-EM substrate 1]
[7]
  binding result: binds

B3: cryo-EM substrate 2 (dsRNA)
RNA 1: GGCGCGCGCCAAAAAUUUUUAAAAAAAAAA
RNA 2: GGCGCGCGCCAAAAAUUUUUAAAAAAAAAA
[8]
  binding result: binds
